Article PMC9020517

Key:
[1] = target: Parkin (UniProt O60260); assay: Strep-Tactin pull-down, anti-Parkin blot; conditions: reference: unmodified Strep-NEDD8; sites S65
[2] = target: HDAC6 (UniProt Q9UBN7); assay: Strep bait enrichment from lysate, Western blot; conditions: reference: unmodified Strep-NEDD8; sites S65

binding against the reference [1]: stronger
binding against the reference [2]: stronger
Substance: NEDD8 1-76 (from UniProt Q15843) Strep-pNEDD8 (pS65)
